{
  "source": "paper PMC12582428",
  "origin": "cited, not measured here",
  "key": {"[1]": {"biological_target": "Neuropeptide Y (Homo sapiens) (UniProt P01303)"}, "[2]": {"biological_target": "Neuropeptide Y (Homo sapiens) (UniProt P01303)", "remark": "listed apart in the source"}},
  "note": "Like-named read-outs stand apart in the source and are kept apart here.",
  "data": [
    {"substance": "Neuropeptide Y receptor Y1 (from UniProt P25929)", "values": [
      {"measurement": "Kd", "setting": "[1]", "value": 4, "unit": "nM"}
    ]},
    {"substance": "Neuropeptide Y receptor Y2 (from UniProt P49146)", "values": [
      {"measurement": "Kd", "setting": "[2]", "value": 0.12, "unit": "nM"}
    ]}
  ]
}
